From paper PMC11116813, “Bipartite binding interface recruiting HP1 to chromosomal passenger complex at inner centromeres” (The Journal of Cell Biology, 2024)
Blank lines part the entries; values can stand above or below the binder they belong to.

Assays:
Settings in all cases: both partners purified
[1] = target: T1, full-length human HP1α WT (hHP1α), recombinant (human, UniProt P45973 1-191); assay: ITC; VP-ITC, 10 μM INCENP fragment in the cell, 100 μM HP1α dimer in the syringe, 20°C, 10 mM Tris pH 8.0, 150 mM NaCl, 1 mM DTT (Fig. 2C); one-site model
T1 construct: heterochromatin protein 1 alpha (HP1α), human, full length; Used as a dimer; The 6His-MBP tag was removed with TEV protease; also called HP1α (full-length, FL); HP1α dimer; source: E. coli BL21 DE3 (pCold), purified (Amylose Resin, TEV cleavage, Ni-NTA flow-through, HiTrap Q)
T1 sequence (P45973 whole entry, the tested form may be a part): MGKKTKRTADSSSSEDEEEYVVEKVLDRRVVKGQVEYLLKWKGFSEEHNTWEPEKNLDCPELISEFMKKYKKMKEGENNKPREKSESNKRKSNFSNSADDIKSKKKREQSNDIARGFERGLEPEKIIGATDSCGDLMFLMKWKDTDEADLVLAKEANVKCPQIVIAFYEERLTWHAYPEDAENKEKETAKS

[2] = target: T1, full-length human HP1α WT (hHP1α), …; assay: ITC; iTC200, full-length HP1α dimer in the cell (60 μM for hINCENP, 80 μM for hSgo1), 600 μM hINCENP or 800 μM hSgo1 fragment in the syringe, 25°C, 20 mM NaPO4 pH 7.0, 150 mM NaCl, 1 mM DTT (Fig. 6A, Fig. S5A); one-site model
[3] = target: T1, full-length human HP1α WT (hHP1α), …; assay: ITC; VP-ITC, 10 μM INCENP peptide or fragment in the cell, 100 μM HP1α full-length or CSD dimer in the syringe, 20°C, 20 mM NaPO4 pH 7.0, 150 mM NaCl, 1 mM DTT (Fig. 2D, Fig. 3D and E); one-site model
[4] = target: T1, full-length human HP1α WT (hHP1α), …; assay: pull-down; 10 μM full-length hHP1α mixed with 5 μM GST-tagged hINCENP -6His fragments in 20 mM NaPO4 pH 7.0, 150 mM NaCl, 1 mM DTT, 30 min at 4°C; Glutathione Sepharose 4B; CBB staining

B3: human INCENP (121-210) -6His, GST removed (Fig. 2D) (domain or fragment, UniProt Q9NQS7 121-210, looked up)
chain: LRRVTRAAAAAAAATMALAAPSSPTPESPTMLTKKPEDNHTQCQLVPVVEIGISERQNAEQHVTQLMSTEPLPRTLSPTPASATAPTSQG
notes: source: E. coli BL21 Codon Plus (pGEX6P1), purified (Ni-NTA, PreScission cleavage, Glutathione Sepharose flow-through, SEC)
binding result [3]: binds

B4: human INCENP (160-210) -6His, GST removed (domain or fragment, UniProt Q9NQS7 160-210, looked up)
chain: HTQCQLVPVVEIGISERQNAEQHVTQLMSTEPLPRTLSPTPASATAPTSQG
notes: INCENP, human, residues 160-210; Isotope-labelled (15N or 13C/15N) in the NMR experiments and unlabelled in ITC; also called 15N-INCENP (160–210) -6His; 13C/15N-INCENP (160–210) -6His; source: E. coli BL21 Codon Plus (pGEX6P1), purified (Ni-NTA, PreScission cleavage, Glutathione Sepharose flow-through, SEC); for NMR grown in M9 medium with 15N-ammonium chloride with or without 13C-glucose; not …
binding result [3]: binds

B5: GST-tagged human INCENP (160-210) -6His (domain or fragment, UniProt Q9NQS7 160-210, looked up)
chain: B4 chain
notes: INCENP, human, residues 160-210; also called INCENP fragment 160–210; source: E. coli BL21 Codon Plus (pGEX6P1), purified (non-cleaved version, SEC); not shown: His6, C-terminal, kept
binding result [4]: binds

Further lines, results first:

Kd [1]: 0.042 µM
B1: human INCENP (121-270) WT -6His, GST removed (domain or fragment, UniProt Q9NQS7 121-270, looked up)
chain: LRRVTRAAAAAAAATMALAAPSSPTPESPTMLTKKPEDNHTQCQLVPVVEIGISERQNAEQHVTQLMSTEPLPRTLSPTPASATAPTSQGIPTSDEESTPKKSKARILESITVSSLMATPQDPKGQGVGTGRSASKLRIAQVSPGPRDSP
notes: The methods describe no removal of the 6His tag; source: E. coli BL21 Codon Plus (pGEX6P1), purified (Ni-NTA, PreScission cleavage, Glutathione Sepharose flow-through, SEC)

Kd [2]: ~4 µM
B2: human Sgo1 fragment (405-494), Tyr-added, GST removed (domain or fragment)
chain: YAKRALKYTDEKETEGSKPTKTPTTTPPETQQSPHLSLKDITNVSLYPVVKIRRLSLSPKKNKASPAVALPKRRCTASVNYKEPTLASKLR
notes: tyrosine residue inserted after the PreScission site, to determine the concentration; Sgo1 (shugoshin 1), human, residues 405-494, contains the canonical PVI motif; also called Sgo1 fragment containing the PVI motif (residues 405–494); Sgo1 405–494; source: E. coli BL21 Codon Plus (pGEX6P1), purified (Glutathione Sepharose, PreScission cleavage, SEC)
